The results in this text go back to US20210214413A1.

Assay [1] concerns the target rhinovirus C15 virus (recombinant RV-C isolate C15, sucrose purified) (rhinovirus C15). Put plainly: IP (α-His mAb) of refolded bacterial protein (100 pmol) with C15 virus (10^7 PFUe), Western blot.
For assay [2] the target is unchanged. Nature of the assay: IP (α-CDHR3 mAb) of transfected HeLa cell lysate reacted with C15 virus, Western blot. A general note: A western blot detects proteins with antibodies after separation by electrophoresis.
Assay [3] shares this target. Nature of the assay: IP of CDHR3 with C15 virus, Western blot; multiple experiments and CDHR3 contexts.
Assay [4] has the same target. Put plainly: IP (α-His mAb) of refolded bacterial protein (100 pmol) with C15 virus (10^7 PFUe), Western blot. This is another data set of the same source.
For assay [5] the target is unchanged. Put plainly: HeLa-expressed protein recovered by α-His IP, denatured and refolded, reacted with C15 virus, α-His IP, Western blot.

Numbering of substitutions follows the chain as printed. In names and notes the source's numbering stands.

In the case of “rEC1+3(Δ2) (FLAG-CDHR3 EC1+3(Δ2), residues 20-345 Δ129-231 with C345A), bacterially produced and refolded (from UniProt Q6ZTQ4 20-344) (receptor)”, the virus-binding efficiency (Binding % relative to positive control) in assay [1] came to 68%.

As for “rEC1-2 (FLAG-CDHR3 EC1-2-His, CDHR3 residues 20-237), bacterially produced and refolded (from UniProt Q6ZTQ4 20-237) (receptor)”, in assay [1], the virus-binding efficiency (Binding % relative to positive control) was 87%. Still for that read-out and setting: the figure for “rEC1-3 (FLAG-CDHR3 EC1-3-His, CDHR3 residues 20-345 with C345A), bacterially produced and refolded (from UniProt Q6ZTQ4 20-344) (receptor)” is 61%. Same read-out and setting: in the case of “rEC1 (FLAG-CDHR3 EC1-His, CDHR3 residues 20-130), bacterially produced and refolded (receptor)” it was 100%.

B1: full-length FLAG-CDHR3 Y529 N186Q (receptor)
chain: DYKDDDDKLHLILLPATGNVAENSPPGTSVHKFSVKLSASLSPVIPGFPQIVNSNPLTEAFRVNWLSGTYFEVVTTGMEQLDFETGPNIFDLQIYVKDEVGVTDLQVLTVQVTDVNEPPQFQGNLAEGLHLYIVERANPGFIYQVEAFDPEDTSRNIPLSYFLISPPKSFRMSAQGTLFSTTELDFEAGHRSFHLIVEVRDSGGLKASTELQVNIVNLNDEVPRFTSPTRVYTVLEELSPGTIVANITAEDPDDEGFPSHLLYSITTVSKYFMINQLTGTIQVAQRIDRDAGELRQNPTISLEVLVKDRPYGGQENRIQITFIVEDVNDNPATCQKFTFSIMVPERTAKGTLLLDLNKFCFDDDSEAPNNRFNFTMPSGVGSGSRFLQDPAGSGKIVLIGDLDYENPSNLAAGNKYTVIIQVQDVAPPYYKNNVYVYILTSPENEFPLIFDRPSYVFDVSERRPARTRVGQVRATDKDLPQSSLLYSISTGGASLQYPNVFWINPKTGELQLVTKVDYETTPIYILRIQATNNEDTSSVTVTVNILEENDEKPICTPNSYFLALPVDLKVGTNIQNFKLTCTDLDSSPRSFRYSIGPGNVNNHFTFSPNAGSNVTRLLLTSRFDYAGGFDKIWDYKLLVYVTDDNLMSDRKKAEALVETGTVTLSIKVIPHPTTIITTTPRPRVTYQVLRKNVYSPSAWYVPFVITLGSILLLGLLVYLVVLLAKAIHRHCPCKTGKNKEPLTKKGETKTAERDVVVETIQMNTIFDGEAIDPVTGETYEFNSKTGARKWKDPLTQMPKWKESSHQGAAPRRVTAGEGMGSLRSANWEEDELSGKAWAEDAGLGSRNEGGKLGNPKNRNPAFMNRAYPKPHPGK
For B1, the Binding % (C15 signal normalized to CDHR3 signal, relative to WT) in assay [2] was found to be 19%.

B2: full-length FLAG-CDHR3 Y529 K43A (receptor)
chain: B1 chain with K32A, Q175N
For B2, the Binding % (C15 signal normalized to CDHR3 signal, relative to WT) in assay [2] was determined as 46%.

B3: full-length FLAG-CDHR3 Y529 N186A (receptor)
chain: B1 chain with Q175A
As to B3, the Binding % (C15 signal normalized to CDHR3 signal, relative to WT) in assay [2] is 11%.

B4: full-length FLAG-CDHR3 Y529 R166A (receptor)
chain: B1 chain with R155A, Q175N
Consider B4, for which, in assay [2], the Binding % (C15 signal normalized to CDHR3 signal, relative to WT) was 16%.

B5: full-length FLAG-CDHR3 Y529 W76A (receptor)
chain: B1 chain with W65A, Q175N
In the case of B5, the more virus pull-down than comparable WT sequences (% more than WT) in assay [3] was in the range of 50 to 80.

B6: rEC1-3 K43A (CDHR3 residues 20-345 with K43A and C345A), bacterially produced and refolded (receptor)
chain: MASDYKDDDDKLHLILLPATGNVAENSPPGTSVHAFSVKLSASLSPVIPGFPQIVNSNPLTEAFRVNWLSGTYFEVVTTGMEQLDFETGPNIFDLQIYVKDEVGVTDLQVLTVQVTDVNEPPQFQGNLAEGLHLYIVERANPGFIYQVEAFDPEDTSRNIPLSYFLISPPKSFRMSANGTLFSTTELDFEAGHRSFHLIVEVRDSGGLKASTELQVNIVNLNDEVPRFTSPTRVYTVLEELSPGTIVANITAEDPDDEGFPSHLLYSITTVSKYFMINQLTGTIQVAQRIDRDAGELRQNPTISLEVLVKDRPYGGQENRIQITFIVEDVNDNPATAGTKHHHHHH
For B6, the Binding % (C15 signal normalized to recombinant protein signal, relative to WT rEC1-3) in assay [4] was determined as 22%.

B7: rEC1-3 N186A (CDHR3 residues 20-345 with N186A and C345A), bacterially produced and refolded (receptor)
chain: B6 chain with A35K, N178A
For the molecule B7, the Binding % (C15 signal normalized to recombinant protein signal, relative to WT rEC1-3) in assay [4] was 85 % of WT.

B8: pHL-FLAG-CDHR3-His EC1-3 (1-345), HeLa-expressed (receptor)
chain: DYKDDDDKLHLILLPATGNVAENSPPGTSVHKFSVKLSASLSPVIPGFPQIVNSNPLTEAFRVNWLSGTYFEVVTTGMEQLDFETGPNIFDLQIYVKDEVGVTDLQVLTVQVTDVNEPPQFQGNLAEGLHLYIVERANPGFIYQVEAFDPEDTSRNIPLSYFLISPPKSFRMSANGTLFSTTELDFEAGHRSFHLIVEVRDSGGLKASTELQVNIVNLNDEVPRFTSPTRVYTVLEELSPGTIVANITAEDPDDEGFPSHLLYSITTVSKYFMINQLTGTIQVAQRIDRDAGELRQNPTISLEVLVKDRPYGGQENRIQITFIVEDVNDNPATCHHHHHH
Take B8: the Binding % after refolding, relative to the same protein not refolded in assay [5] was 213%.
